According to a protein production outcome set (Wang et al. 2014):

Test: label from the status in PepcDB records

For “MMEERANLMHMMKLSIKVLLQSALSLGRSLDADHAPLQQFFVVMEHCLKHGLKVKKSFIGQNKSFFGPLELVEKLCPEASDIATSVRNLPELKTAVGRGRAWLYLALMQKKLADYLKVLIDNKHLLSEFYEPEALMMEEEGMVIVGLLVGLNVLDANLCLKGEDLDSQVGVIDFSLYLKDVQDLDGGKEHERITDVLDQKNYVEELNRHLSCTVGDLQTKIDGLEKTNSKLQEELSAATDRICSLQEEQQQLREQNELIRERSEKSVEITKQDTKVELETYKQTRQGLDEMYSDVWKQLKEEKKVRLELEKELELQIGMKTEMEIAMKLLEKDTHEKQDTLVALRQQLEEVKAINLQMFHKAQNAESSLQQKNEAITSFEGKTNQVMSSMKQMEERLQHSERARQGAEERSHKLQQELGGRIGALQLQLSQLHEQCSSLEKELKSEKEQRQALQRELQHEKDTSSLLRMELQQVEGLKKELRELQDEKAELQKICEEQEQALQEMGLHLSQSKLKMEDIKEVNQALKGHAWLKDDEATHCRQCEKEFSISRRKHHCRNCGHIFCNTCSSNELALPSYPKPVRVCDSCHTLLLQRCSSTAS”, the protein production was “not failed”.
For “MMETTAGDTLQQFVTAPVRTATYKRLLYLLLAFPLGVAYFVAFTTGSSLGLGLAFTLVGLPVLLVTLVATTGAAGLEARLATVLLDQEVATPPSPRETLDSDDGYLAAVWRFATEPTTWTSVAVVLLKFVYGIVAFVVTITGTALVGTLLAAPFVYDDPGVNYQFGQYAVSTLPEAIGVATVGVAGIWILCNVINVVAAAGGLMTDAFLSVGRERAA”, the protein production was “failed”.
In the case of “MMGIMSDPITILDSSDSLSRLSSESVGRLVVHRKDDLDIFPVNFVLDYSAEQPRVYFRTAEGTKLFSVNLNSDVLFEVDRFDDAEGWSVVLKGNAYVVRDTEEARHADTLGLKPWLPTLKYNFVRIDVREVSGRAFVFGEEPERY”, the protein production is reported as “not failed”.
With “MMGRVAMLTGSRGLRYATVIALVAALVGGVYVLSSTGNKRTIVGYFTSAVGLYPGDQVRVLGVPVGEIDMIEPRSSDVKITMSVSKDVKVPVDVQAVIMSPNLVAARFIQLTPVYTGGAVLPDNGRIDLDRTAVPVEWDEVKEGLTRLAADLSPAAGELQGPLGAAINQAADTLDGNGDSLHNALRELAQVAGRLGDSRGDIFGTVKNLQVLVDALSESDEQIVQFAGHVASVSQVLADSSANLDQTLGTLNQALSDIRGFLRENNSTLIETVNQLNDFAQTLSDQSENIEQVLHVAGPGITNFYNIYDPAQGTLNGLLSIPNFANPVQFICGGSFDTAAGPSAPDYYRRAEICRERLGPVLRRLTVNYPPIMFHPLNTITAYKGQIIYDTPATEAKSETPVPELTWVPAGGGAPVGNPADLQSLLVPPAPGPAPAPPAPGAGPGEHGGGG” the protein production was “failed”.
With “MMIARTLSIFIGTLLLATCSIPTRLNIPTIAITDHPKYKLLLILIDGLRADALEHGQAPQLARLASDGVHARWMTPSYPALTLPNAYTLITGLRPDHHGIVHNTMEDPLLGAFESERQEAISNGRWWGGEPIWVSAEHAGIRSATFLWPGSEASIAGTRPSRWYAYNKHISADTQITQALRWLNERGPDAPRLVILRFEQVNTAGDNFGPDSPQYAAAVNMIDSAIGRLIDSLRQHGKLTDTDVIVVSDQGIAPIPGDHAVPLERIVQLSDVHVVSDGQVLGITPLPGHESKVEAMVLGAHATYDCWRKQALPTHWHYGTHPRIPNIVCQMHEGWNALSAAQITKRNPLQMGGSSGFDPMLPSMRAVFLANGPSFMPNLLLNPINNVDIYPLLARLLGIAMAPNDGNPRALLQALRTSNTANGYTYSKRNALHLEHHHHHH” the protein production was “failed”.
With “MMIHMEYYLVVSTIMMFAGIYGFFTRRNTLAILISVELMLNATDINFAVFNRFLFPGELEGYFFALFSIAISAAETAIAIAIMINIYRNIRSIQVKNLDELKW” the protein production was “failed”.
With “MMIKASTNEFRFCFKQMNKSQHELVLGWIHQPHINEWLHGDGLSNTIKDLHEFLNDGKPWATHWIAYDNEIPFAYLITSEIEKSEEYPDGAVTLDLFICRLDYIGKGLSVQMIHEFILSQFSDTKIVLINPEISNERAVHVYKKAGFEIIGEFIASWHPVPHYKMKLCIEDLKKQRLSA” the protein production was “not failed”.
For “MMIVDPKYCSLHPVDLAIVRKVLKITDGNFVITNAEGNLLFKVKDPFFSLHEKRILMDGFGTKVLTLKGKIMTMHDRWLVFRGGSTEEVDLLYTVKRSNMVQITTKLDVFLADNIEQKKCDYRLEGVWLETSCFVYAGDSDIILAQMREKKTMQSVLFGKDNFCLTVNPNVDYAFIASLIVILFHQKDDIYPIESLWKRDITDFIC”, the protein production was “failed”.
For “MMKAYQREFIEFALEKQVLKFGEFTLKSGRKSPYFFNAGLFNTGRDLARLGRFYAAALVDSGIEFDVLFGPAYKGIPIATTTAVALADHHDVDTPYCFNRKEAKNHGEGGNLVGSKLEGRVMLVDDVITAGTAIRESMELIQANKADLAGVLVAIDRQEKGKGELSAIQEVERDFGCAVISIVSLTDLITYLEQQGNNTEHLEAVKAYRAQYGI”, the protein production was “not failed”.
In the case of “MMKETQQWTSKIGFVLAAAGAAVGLGAIWKFPYVAGNGGGGAFFLVFLLLTLFIGMPLLIAEFVIGRSTQKEAVTAYKVLVPNSKLYPWIGRMGVVTCFSVLSFYSVVGGWILLYLYYSVTGSFWNGAADYGQLFGETISNPLSAIGAQFIFMLCTIFVVSKGVEKGIEKASKYMMPLLFILFIAIIVRALTLDGAFAGVEFFLKPDFSKLTADTILYAMGQSFFSLTVGASVMVTYSSYLKKEEHLAKSATSIVSLTVFVTVLAGLAIFPAIFALGVKPTEGPGLLFIVLPAVFAKIPFGQFFFIMFLILFFFATLTSAISMLEIVVASVAKGNEKKRPSASLLIGILIFAVGIPSALSFGIMSDVKIFGKTFFDLVDFSVSNVLLPLGVLAISLFVPNKMSKELLMKELEVTETKGKTLFNIWFFLLRYVIPVTVIIVFLNAIGVFKMFA”, the protein production is reported as “failed”.
In the case of “MMKILGLIGGMSWESTIPYYRMINQHVKAQLGGLHSAKIILYSVDFHEIEQLQAKGDWQTAAQLLSNAAISLKHAGAEVIVVCTNTMHKVADDIEAACGLPLLHIADATAVQIKQQGIDKIGLLGTRYTMEQGFYRGRLTEKHGIEVITPDDTDREAVNRIIYEELCLGIISETSRDAYRRVIKKLEAQGVQGIIFGCTEITLLVNAQDASVPVFDTTAIHASAAADYALQ”, the protein production is reported as “not failed”.
In the case of “MMKKAGLYIHIPFCLQKCNYCDFFSVRAGRFKNILSGHLSPFVLRLAEDIKIQADKYSINEWDTVYIGGGTPSLLSPDDLYYLSSQIPAAQKNPHREFTVEINPEDLTKDFLSAAVSGGINRFSVGIQSLNDEVLSACKRRGCRKMSLSALELLRSQKGLILSCDLIAGLNKQSLGILKDDIQTLLHFKPEHFSLYALCSNTKLPPEKDDEIAELWSYGKDILEKNSYNKYEVSNFSYKNLYKSIHNEKYWRLEDYIGVGPGAFGSIFFDRKVLHANAHANALRFSAIKNIEKWMTLKNRDEVYEYETIDEKEFIEEAFMMGLRLTEGIDRSFFKSRFGKDISVFAGKTISKWLDRNEAVLTEKRFYLTEKGFLYLNLFLQELFQEIDSLF”, the protein production is reported as “failed”.
For “MMKKHMYRLGLFKALTLALLVLLSAFVPSVLANQSRKPANLDGTTTLQSILSSSHRSEENRQRDKYRHPTQTLSFFGLRPDMTVVELWPGSGWYTEILAPYLAAKGQLIVTNFAPNDSKIPTVVFQQKLATAFQQKLEANKEVFGKIRVALINPPQELTLAPDNSVDMVVTFRNIHNWVNAGYAEQVYAAAYKALKPGGILGVEEHRAKPGISLQESIKTGYMSEDGVIAAVEKVGFKLVGKSEINANPQDTKDYPGGVWALPPTLRQGQKDRQRLVAIGESDRMTLKFIKPEANINSGSNAK”, the protein production was “failed”.
For “MMKMDLKKEVKEEFIRFQRNEKTESIVYERLASIEKDESNRKVLRLISAEEKAHYATLKKYTETDVAPDKLRIAKYYWLARILGITFAIKLMESSEENAHHDYAKYTDYPDLRQLANEEEVHEQKLIGLINEERLEYMGSVVLGLNDALVEFTGALAGFTLALSDSRLIALTGSITGIAAALSMASSEYLSTKSEGGETKHPIKAAIYTGIAYIITVVALVAPFILIENVLIALGVMLAMALVIIALFNYYYSVARGESFRKRFTEMAVLSFSVAGISFLIGYALKTFTGIDA”, the protein production was “failed”.
In the case of “MMKQNPILITGGTGTVGSRIASRLIKLGYRVRIASRKKGALADAEYVYFNWKYASSFTPALEQVKQIYLVAPVGVFDPAPYVLPFLKEAKRLGAKRVVMQSASVVSENGPVFGALHQAVREFPEWTVLRPSYFMQNFINVQHRMSIQTEGRITTASGEGKLGFIDADDIAETAVRALIDDVPHQTHHILTGPEALSYAEAAEIIGAAAGRRVEHVSISRSELQHKMEAGGLPADYAHFMAKLDEAISHGAEHRVTDTVKRVTGKEPRSLSEFAAAHAAYWTSFWTELEHHHHHH”, the protein production is reported as “failed”.
With “MMKTLSPLKASLFAILASSTVLVTTVSAEPSQECDHPRSEFHKRGDRMGHDGMHKMFEGLELTDTQKADIKKLFAEQRAARSDDKPTKEERLARRAEMHALITAATFDETQAKALIGAQQEKRQAQAIERMKMQNQIYNLLTPEQQAKFKARFEAHTGKEPRSLEHHHHHH” the protein production was “failed”.
With “MMKTMDIIIPREFVSDDQYLLQKLCVVNNDFVKEGEILALIESSKSVIDVTSPADGYVYFFSDEGDIVSVGERLALLASTKEALQVEIENSNKNSQRRKESETKSEDVSLSGVRCSKKALLLMKQHNIDVGAFDGLGMVTAQDVEHYLSSREKAVKATVAPSSVNRQKIIILGGGGHSKVCIDILRQAQSFTIAGILDSIQDIGAEVLGIPVIGRDTMPELLKTRESGISLAVNGIGLIPDHRNRCKLFERLLEAGFHLPNLIHPKASIEPSAKLGEGNQIMAGAIIGSDVTVGNYCLINSGVVVSHDCIIDDHVHLAPGALLAGAVRVGRNSLIGMGVTIYAKVTIGSNVVIANGANVFHDVPDNTVVKI” the protein production was “failed”.
In the case of “MMLAGCQSEEETSQFLLACKYDAPATIAAMLDNGIDVDGQDKTGLSGLMVAAAENRRDVVELLLKRRAKPNLQTRQGVTALMLAAARGSDTAIIGDLLQAGASVNQTSIDKSTALMSAISDGGDVRNDYQHILAMKKPDAPVEEESTLDKIVGATAAKSLATGNRALMTEDMALQLAPGAFKKNVDEIVALLLKHGADVKAVNVSGESAFFLAVDHARSAETITTLANAGADTSLADKSGTTPLMLAAAGDDPDLVLALSASGVEVDKPNREGLTALQVAAGQGAPAVIAALAQRGAKVDQLSANDLSPLMLAVKMNNKANVEALLAAGASVNLSNKAGYTAIGYSRAGEVRQLLLAQHAELKGQAAHMAQSELQFCANAFADKLAYSDIARAVNNDTRPDIMRHQQSCPELGELTMLLGEFTFTPAGATYLGEPVTCKVSEYRKTFEVNCR”, the protein production is reported as “failed”.
In the case of “MMLLQQFKKIITVLIQVLVIMGITYLGNVIQRYMHIPIAGSIVGLLLFFLLLQFKVIPAKWVNEGSNFFLTTMVFFFVPSVVGIMDVVPMINLNFILFFSMILLGTCCVALISGFIAEKMVKNKQDGNGVN”, the protein production is reported as “failed”.
In the case of “MMLSSNSFSLNLSNEDYIWPLEEDQEETTDSSGPMMLSPPLPEGACFNFEDRNTVYVHSRRPEDTPKSFELYSIPEDLALDSPFPSCEQTTFFTTKPDKSFLLDIKNSSPLNIGRMQNSRS”, the protein production is reported as “not failed”.
With “MMLYRYTQTKLAQIASELKQTGLWSATAPSVEAMASTAPFACDLMPFEQWLQFIFIPRMQALIDAGQALPSQIAIAPMAEHLWSEQAALAPLISTLNELDILLNEPRLEHHHHHH” the protein production was “not failed”.
In the case of “MMMIFAVLGIFDFLRGEDEGESLEKYLRKLEDLLEEEFDTLVRIAGFYAEEGDTREALDYLERAYRVASEMNDEELMAFALDSMGDVYLSDRKVKTAMEYFMEALRIYTSVNSPLRADLREKIKEVEKIREAMDIASINRLREESESGMPEVDLEVIEPLLNRLVDSVQSLTLYEAGSYEDSISQIMEAYQIARDIGDTSTEASLQLLLGLYSLKNEDFDESRRYLKKAEALFRKTNNELGLAVALVLLGTLDFIRNNADGVASSFRAAVEILQKLDEKELESVTLELLNTLYSF”, the protein production is reported as “failed”.
For “MMMLQGSKSGSEMEVTWEDQQNINIFSRLNNRVHDLDDDIKSAKEKCENLEDAGNELILADEEMVRFQIGEVFAHVPRDDVETKIEEMKEATCKSLEKLEQEKESIVTQMAALKKVLYAKFKDSINLEED”, the protein production was “failed”.
